Laboratory results reported in patent US20250042956A1 (University of California, published 2025).

Tests used:
Experiment in all cases: IP-MS rep 2
AT3G10480.3 NAC050 = target: T1, AT3G10480.3 NAC050 (Arabidopsis thaliana, UniProt Q9SQX9 1-447, limits assumed)
T1 construct: Endogenous protein found by mass spectrometry
T1 sequence (looked up): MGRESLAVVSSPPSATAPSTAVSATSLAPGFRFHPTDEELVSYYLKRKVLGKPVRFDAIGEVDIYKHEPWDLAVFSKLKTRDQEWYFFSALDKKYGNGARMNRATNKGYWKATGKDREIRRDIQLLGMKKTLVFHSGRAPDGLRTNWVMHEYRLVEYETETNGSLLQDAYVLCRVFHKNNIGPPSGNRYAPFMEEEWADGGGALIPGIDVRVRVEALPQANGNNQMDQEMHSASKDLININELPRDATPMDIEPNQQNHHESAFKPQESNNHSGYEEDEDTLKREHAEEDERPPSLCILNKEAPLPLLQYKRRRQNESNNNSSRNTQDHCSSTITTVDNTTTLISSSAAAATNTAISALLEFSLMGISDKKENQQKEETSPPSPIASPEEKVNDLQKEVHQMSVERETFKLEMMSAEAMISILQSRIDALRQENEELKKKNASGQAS
Procedure, shortened: (§1)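 Ten grams of unopened floral buds from Col-0 wild type and FLAG-tagged transgenic Arabidopsis lines were ground in liquid nitrogen, homogenised in 25 mL IP buffer and filtered through Miracloth. Lysates were incubated with 250 μL anti-FLAG M2 magnetic beads at 4° C for 2 hours, washed and eluted with TBS containing 250 μg/mL 3×FLAG peptides. Eluted proteins were precipitated with trichloroacetic acid and analysed by mass spectrometry to give peptide counts for co-purified proteins.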

AT5G51230.1 EMF2 = target: T2, AT5G51230.1 EMF2 (Arabidopsis thaliana, UniProt Q8L6Y4 1-631)
T2 construct: Endogenous protein found by mass spectrometry; also called EMBRYONIC FLOWER 2
T2 sequence (looked up): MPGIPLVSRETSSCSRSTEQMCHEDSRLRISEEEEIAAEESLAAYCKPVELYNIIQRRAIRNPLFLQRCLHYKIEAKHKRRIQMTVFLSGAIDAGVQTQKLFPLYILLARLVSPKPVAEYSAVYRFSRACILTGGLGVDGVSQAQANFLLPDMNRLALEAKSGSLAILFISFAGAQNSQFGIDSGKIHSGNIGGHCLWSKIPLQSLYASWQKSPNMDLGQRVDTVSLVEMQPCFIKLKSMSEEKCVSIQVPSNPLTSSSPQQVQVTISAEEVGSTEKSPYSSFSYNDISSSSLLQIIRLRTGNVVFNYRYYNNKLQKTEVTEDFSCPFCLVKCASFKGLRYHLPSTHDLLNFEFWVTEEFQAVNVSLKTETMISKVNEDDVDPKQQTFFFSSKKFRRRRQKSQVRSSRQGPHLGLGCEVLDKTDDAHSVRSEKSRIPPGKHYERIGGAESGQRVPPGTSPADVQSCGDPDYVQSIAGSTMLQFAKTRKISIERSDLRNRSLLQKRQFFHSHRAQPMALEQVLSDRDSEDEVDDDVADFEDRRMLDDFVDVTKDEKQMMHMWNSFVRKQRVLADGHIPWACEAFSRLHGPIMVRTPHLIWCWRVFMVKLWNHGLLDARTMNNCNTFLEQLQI
Procedure, shortened: as §1

AT2G23380.1 CLF = target: T3, AT2G23380.1 CLF (Arabidopsis thaliana, UniProt P93831 1-902)
T3 construct: Endogenous protein found by mass spectrometry; also called CURLY LEAF
T3 sequence (looked up): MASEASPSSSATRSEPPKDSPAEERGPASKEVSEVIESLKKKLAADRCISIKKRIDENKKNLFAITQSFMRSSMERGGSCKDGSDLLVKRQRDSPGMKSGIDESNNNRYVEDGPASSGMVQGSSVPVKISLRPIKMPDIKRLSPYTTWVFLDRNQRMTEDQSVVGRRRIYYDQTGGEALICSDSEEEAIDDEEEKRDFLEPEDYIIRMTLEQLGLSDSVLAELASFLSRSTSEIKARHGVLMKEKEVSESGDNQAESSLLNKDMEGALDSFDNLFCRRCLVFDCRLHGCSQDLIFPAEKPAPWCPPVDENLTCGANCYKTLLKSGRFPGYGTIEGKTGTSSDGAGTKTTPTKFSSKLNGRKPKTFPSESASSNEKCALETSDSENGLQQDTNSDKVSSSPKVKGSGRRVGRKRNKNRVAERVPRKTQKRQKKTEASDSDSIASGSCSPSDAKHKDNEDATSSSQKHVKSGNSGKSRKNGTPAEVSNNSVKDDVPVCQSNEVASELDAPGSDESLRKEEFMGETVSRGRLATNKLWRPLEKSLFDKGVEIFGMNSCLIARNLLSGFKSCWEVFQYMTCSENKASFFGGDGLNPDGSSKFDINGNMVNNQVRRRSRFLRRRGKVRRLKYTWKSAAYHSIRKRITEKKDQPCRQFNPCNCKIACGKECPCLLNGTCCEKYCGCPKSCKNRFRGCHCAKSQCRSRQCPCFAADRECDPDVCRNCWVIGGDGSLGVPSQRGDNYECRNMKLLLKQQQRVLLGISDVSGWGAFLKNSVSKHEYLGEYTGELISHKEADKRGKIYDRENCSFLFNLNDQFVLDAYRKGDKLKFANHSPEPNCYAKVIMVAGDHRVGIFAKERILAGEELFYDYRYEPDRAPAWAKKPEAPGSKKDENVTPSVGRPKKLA
Procedure, shortened: as §1

AT5G08450.1 HDC1 = target: T4, AT5G08450.1 HDC1 (Arabidopsis thaliana)
T4 construct: Endogenous protein found by mass spectrometry
Procedure, shortened: as §1

AT1G49950.3 TRB1 = target: T5, AT1G49950.3 TRB1 (Arabidopsis thaliana, UniProt Q8VWK4 1-300, limits assumed)
T5 construct: Endogenous protein found by mass spectrometry
T5 sequence: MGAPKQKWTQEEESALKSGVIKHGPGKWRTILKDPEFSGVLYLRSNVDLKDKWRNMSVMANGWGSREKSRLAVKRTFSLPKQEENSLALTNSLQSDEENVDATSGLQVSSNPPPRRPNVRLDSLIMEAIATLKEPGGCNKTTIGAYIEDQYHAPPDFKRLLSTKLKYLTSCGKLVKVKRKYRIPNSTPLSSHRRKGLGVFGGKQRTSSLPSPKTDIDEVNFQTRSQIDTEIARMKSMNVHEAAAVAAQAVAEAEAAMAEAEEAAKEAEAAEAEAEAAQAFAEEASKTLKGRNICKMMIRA
Procedure, shortened: as §1

AT5G67580.1 TRB2 = target: T6, AT5G67580.1 TRB2 (Arabidopsis thaliana, UniProt Q9FJW5 1-299)
T6 construct: Endogenous protein found by mass spectrometry
T6 sequence: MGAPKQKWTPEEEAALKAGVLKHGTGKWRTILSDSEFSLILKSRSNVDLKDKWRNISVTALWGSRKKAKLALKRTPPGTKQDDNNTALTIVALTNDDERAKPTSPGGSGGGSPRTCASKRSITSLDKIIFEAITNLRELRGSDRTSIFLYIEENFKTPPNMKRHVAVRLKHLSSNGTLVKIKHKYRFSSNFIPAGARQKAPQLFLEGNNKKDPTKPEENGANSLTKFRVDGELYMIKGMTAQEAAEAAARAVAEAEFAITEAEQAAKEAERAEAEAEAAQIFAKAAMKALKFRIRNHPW
Procedure, shortened: as §1

- IP-MS count (AT3G10480.3 NAC050): 0
- IP-MS count (AT5G51230.1 EMF2): 0
- IP-MS count (AT2G23380.1 CLF): 0
- IP-MS count (AT5G08450.1 HDC1): 0
- IP-MS count (AT1G49950.3 TRB1): 5
- IP-MS count (AT5G67580.1 TRB2): 3
B1: TRBIP2 (bait of the TRBIP2 IP-MS) (other, not shown: small tags and cut ends)
chain: MATNACLESDSLLPPRKRLLAGFKNQNSRISNESPSPPFASSSSSTTTSNGSSASAVVHTHHLDHLLNDQTRSPEELAQASKATAALAVKVAKAARATANEKAIIASKAVAAAKNALELFASFPAAETVSCKEPRLIRAINNSPRVLTDCSGHRNKKQKTLTSTMNDGNDVAGVVDSDDGTRVNGKLLLCDNTLKEKTEEESSSLGKRRGRVKLPLSMCAYKDQENGITLEENNLSVSKSEGYNGGVAQVIERPSWKCQDLKSPECVKQNKVVRS
notes: tag and its position not described; also called TRBIP2-1; TRBIP2-2
